Measurements from article PMC9482650, “Quantitative fragmentomics allow affinity mapping of interactomes” (Nature Communications, 2022).
Changes are numbered by the printed parent chain.

T1: LNX2_3, Q8N448
T1 sequence (Q8N448 463-564, limits assumed, looked up): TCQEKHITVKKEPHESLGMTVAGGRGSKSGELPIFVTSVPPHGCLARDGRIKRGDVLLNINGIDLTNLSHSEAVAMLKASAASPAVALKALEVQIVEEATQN

T2: DVL3, Q92997
T2 sequence (Q92997 244-331, limits assumed, looked up): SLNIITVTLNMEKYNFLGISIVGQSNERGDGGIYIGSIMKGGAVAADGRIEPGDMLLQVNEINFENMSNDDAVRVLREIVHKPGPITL

T3: PDZD7_3, Q9H5P4
T3 sequence (Q9H5P4 857-944, limits assumed, looked up): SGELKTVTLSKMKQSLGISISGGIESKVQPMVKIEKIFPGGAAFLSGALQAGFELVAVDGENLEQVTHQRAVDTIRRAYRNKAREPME

T4: LIN7C, Q9NUP9
T4 sequence (Q9NUP9 88-185, limits assumed, looked up): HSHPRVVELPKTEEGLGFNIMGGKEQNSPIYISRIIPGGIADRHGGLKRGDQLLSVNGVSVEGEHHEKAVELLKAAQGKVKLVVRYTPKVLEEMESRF

T5: APBA3_1, O96018
T5 sequence (O96018 389-490, limits assumed, looked up): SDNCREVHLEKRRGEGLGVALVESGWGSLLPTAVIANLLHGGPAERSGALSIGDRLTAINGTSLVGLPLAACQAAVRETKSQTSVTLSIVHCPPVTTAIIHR

T6: MPP2, Q14168
T6 sequence (Q14168 180-250, limits assumed, looked up): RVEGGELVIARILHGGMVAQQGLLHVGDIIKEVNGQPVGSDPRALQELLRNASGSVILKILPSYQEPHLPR

T7: FRMPD1, Q5SYB0
T7 sequence (Q5SYB0 52-145, limits assumed, looked up): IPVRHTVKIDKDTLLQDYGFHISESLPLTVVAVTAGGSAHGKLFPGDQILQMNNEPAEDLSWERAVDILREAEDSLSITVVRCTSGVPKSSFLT

T8: LIN7B, Q9HAP6
T8 sequence (Q9HAP6 88-185, limits assumed, looked up): T4 sequence (Q9NUP9 88-185, limits assumed, looked up) with S2A, E13D, I35V, I40V, H65Q, K79S, K89R, S96A

T9: PDZD2_2, O15018
T9 sequence (O15018 329-429, limits assumed, looked up): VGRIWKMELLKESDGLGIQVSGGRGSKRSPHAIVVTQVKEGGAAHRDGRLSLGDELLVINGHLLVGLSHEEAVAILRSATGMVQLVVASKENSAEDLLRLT

T10: HTRA4, P83105
T10 sequence (P83105 378-476, limits assumed, looked up): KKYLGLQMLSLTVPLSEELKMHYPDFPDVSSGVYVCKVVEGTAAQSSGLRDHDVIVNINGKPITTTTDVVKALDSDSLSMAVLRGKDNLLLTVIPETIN

T11: GRIP1_4, Q9Y3R0
T11 sequence (Q9Y3R0 467-571, limits assumed, looked up): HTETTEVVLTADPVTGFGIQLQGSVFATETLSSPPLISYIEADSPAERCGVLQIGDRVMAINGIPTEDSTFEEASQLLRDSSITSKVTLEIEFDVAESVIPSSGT


Target: T1, LNX2_3, Q8N448
Experiment: holdup assay
Parameters: key: below the threshold = too weak to quantify, mostly under pKd 3.1 to 4
Conditions: plain residues with an end cap or a label only (N-terminal biotin on a linker: ado-ado)

| Binder | pKd |
| --- | --- |
| AKPSRISTVV [IQSEC2, Q5JU85] | below the threshold |
| TSQESEDTYL [TBC1D10A, Q9BXI6] | below the threshold |

Target: Inadl_1, Q8NI35
Experiment: holdup assay
Parameters: key: below the threshold = too weak to quantify, mostly under pKd 3.1 to 4
Conditions: plain residues with an end cap or a label only (N-terminal biotin on a linker: ado-ado)

Chain of Inadl_1, Q8NI35 (Q8NI35 113-229): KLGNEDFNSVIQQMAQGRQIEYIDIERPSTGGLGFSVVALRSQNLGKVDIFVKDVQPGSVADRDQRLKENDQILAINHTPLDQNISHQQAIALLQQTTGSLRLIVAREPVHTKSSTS

| Binder | pKd |
| --- | --- |
| AKPSRISTVV [IQSEC2, Q5JU85] | below the threshold |
| TSQESEDTYL [TBC1D10A, Q9BXI6] | below the threshold |

Target: DLG4_1, P78352
Experiment: holdup assay
Parameters: key: below the threshold = too weak to quantify, mostly under pKd 3.1 to 4
Conditions: plain residues with an end cap or a label only (N-terminal biotin on a linker: ado-ado)

Chain of DLG4_1, P78352 (P78352 62-152): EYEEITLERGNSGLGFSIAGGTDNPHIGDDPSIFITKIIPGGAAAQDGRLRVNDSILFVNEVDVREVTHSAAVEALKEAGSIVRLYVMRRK

| Binder | pKd |
| --- | --- |
| AKPSRISTVV [IQSEC2, Q5JU85] | 4.82 |
| TSQESEDTYL [TBC1D10A, Q9BXI6] | below the threshold |

Target: ARHGEF12, Q9NZN5-2
Experiment: holdup assay
Parameters: key: below the threshold = too weak to quantify, mostly under pKd 3.1 to 4
Conditions: plain residues with an end cap or a label only (N-terminal biotin on a linker: ado-ado)

Chain of ARHGEF12, Q9NZN5-2 (Q9NZN5 other isoform, or with tags, fused parts or gaps): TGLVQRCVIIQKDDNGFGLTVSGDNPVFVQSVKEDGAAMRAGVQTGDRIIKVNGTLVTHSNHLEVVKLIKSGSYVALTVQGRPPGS

| Binder | pKd |
| --- | --- |
| AKPSRISTVV [IQSEC2, Q5JU85] | 4.75 |
| TSQESEDTYL [TBC1D10A, Q9BXI6] | 4.02 |

Target: T2, DVL3, Q92997
Experiment: holdup assay
Parameters: key: below the threshold = too weak to quantify, mostly under pKd 3.1 to 4
Conditions: plain residues with an end cap or a label only (N-terminal biotin on a linker: ado-ado)

| Binder | pKd |
| --- | --- |
| AKPSRISTVV [IQSEC2, Q5JU85] | below the threshold |
| TSQESEDTYL [TBC1D10A, Q9BXI6] | below the threshold |

Target: T3, PDZD7_3, Q9H5P4
Experiment: holdup assay
Parameters: key: below the threshold = too weak to quantify, mostly under pKd 3.1 to 4
Conditions: plain residues with an end cap or a label only (N-terminal biotin on a linker: ado-ado)

| Binder | pKd |
| --- | --- |
| AKPSRISTVV [IQSEC2, Q5JU85] | 5.21 |
| TSQESEDTYL [TBC1D10A, Q9BXI6] | 3.9 |

Target: T4, LIN7C, Q9NUP9
Experiment: holdup assay
Parameters: key: below the threshold = too weak to quantify, mostly under pKd 3.1 to 4
Conditions: plain residues with an end cap or a label only (N-terminal biotin on a linker: ado-ado)

| Binder | pKd |
| --- | --- |
| AKPSRISTVV [IQSEC2, Q5JU85] | below the threshold |
| TSQESEDTYL [TBC1D10A, Q9BXI6] | below the threshold |

Target: Inadl_8, Q8NI35
Experiment: holdup assay
Parameters: key: below the threshold = too weak to quantify, mostly under pKd 3.1 to 4
Conditions: plain residues with an end cap or a label only (N-terminal biotin on a linker: ado-ado)

Chain of Inadl_8, Q8NI35 (Q8NI35 1425-1530): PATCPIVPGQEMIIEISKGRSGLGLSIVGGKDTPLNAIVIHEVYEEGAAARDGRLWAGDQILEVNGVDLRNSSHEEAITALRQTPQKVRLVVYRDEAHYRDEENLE

| Binder | pKd |
| --- | --- |
| AKPSRISTVV [IQSEC2, Q5JU85] | 3.89 |
| TSQESEDTYL [TBC1D10A, Q9BXI6] | below the threshold |

Target: T5, APBA3_1, O96018
Experiment: holdup assay
Parameters: key: below the threshold = too weak to quantify, mostly under pKd 3.1 to 4
Conditions: plain residues with an end cap or a label only (N-terminal biotin on a linker: ado-ado)

| Binder | pKd |
| --- | --- |
| AKPSRISTVV [IQSEC2, Q5JU85] | below the threshold |
| TSQESEDTYL [TBC1D10A, Q9BXI6] | below the threshold |

Target: T6, MPP2, Q14168
Experiment: holdup assay
Parameters: key: below the threshold = too weak to quantify, mostly under pKd 3.1 to 4
Conditions: plain residues with an end cap or a label only (N-terminal biotin on a linker: ado-ado)

| Binder | pKd |
| --- | --- |
| AKPSRISTVV [IQSEC2, Q5JU85] | below the threshold |
| TSQESEDTYL [TBC1D10A, Q9BXI6] | below the threshold |

Target: T7, FRMPD1, Q5SYB0
Experiment: holdup assay
Parameters: key: below the threshold = too weak to quantify, mostly under pKd 3.1 to 4
Conditions: plain residues with an end cap or a label only (N-terminal biotin on a linker: ado-ado)

| Binder | pKd |
| --- | --- |
| AKPSRISTVV [IQSEC2, Q5JU85] | below the threshold |
| TSQESEDTYL [TBC1D10A, Q9BXI6] | below the threshold |

Target: T8, LIN7B, Q9HAP6
Experiment: holdup assay
Parameters: key: below the threshold = too weak to quantify, mostly under pKd 3.1 to 4
Conditions: plain residues with an end cap or a label only (N-terminal biotin on a linker: ado-ado)

| Binder | pKd |
| --- | --- |
| AKPSRISTVV [IQSEC2, Q5JU85] | 3.73 |
| TSQESEDTYL [TBC1D10A, Q9BXI6] | below the threshold |

Target: T9, PDZD2_2, O15018
Experiment: holdup assay
Parameters: key: below the threshold = too weak to quantify, mostly under pKd 3.1 to 4
Conditions: plain residues with an end cap or a label only (N-terminal biotin on a linker: ado-ado)

| Binder | pKd |
| --- | --- |
| AKPSRISTVV [IQSEC2, Q5JU85] | 4.29 |
| TSQESEDTYL [TBC1D10A, Q9BXI6] | 4.49 |

Target: Inadl_9, Q8NI35
Experiment: holdup assay
Parameters: key: below the threshold = too weak to quantify, mostly under pKd 3.1 to 4
Conditions: plain residues with an end cap or a label only (N-terminal biotin on a linker: ado-ado)

Chain of Inadl_9, Q8NI35 (Q8NI35 1530-1615): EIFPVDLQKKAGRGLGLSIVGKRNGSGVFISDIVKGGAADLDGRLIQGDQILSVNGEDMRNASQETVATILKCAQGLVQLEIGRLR

| Binder | pKd |
| --- | --- |
| AKPSRISTVV [IQSEC2, Q5JU85] | below the threshold |
| TSQESEDTYL [TBC1D10A, Q9BXI6] | 3.58 |

Target: T10, HTRA4, P83105
Experiment: holdup assay
Parameters: key: below the threshold = too weak to quantify, mostly under pKd 3.1 to 4
Conditions: plain residues with an end cap or a label only (N-terminal biotin on a linker: ado-ado)

| Binder | pKd |
| --- | --- |
| AKPSRISTVV [IQSEC2, Q5JU85] | below the threshold |
| TSQESEDTYL [TBC1D10A, Q9BXI6] | 3.75 |

Target: LNX1_3, Q8TBB1
Experiment: holdup assay
Parameters: key: below the threshold = too weak to quantify, mostly under pKd 3.1 to 4
Conditions: plain residues with an end cap or a label only (N-terminal biotin on a linker: ado-ado)

Chain of LNX1_3, Q8TBB1 (Q8TBB1 500-596): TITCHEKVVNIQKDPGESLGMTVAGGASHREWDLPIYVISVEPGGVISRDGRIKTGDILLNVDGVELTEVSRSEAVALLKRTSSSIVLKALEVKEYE

| Binder | pKd |
| --- | --- |
| AKPSRISTVV [IQSEC2, Q5JU85] | below the threshold |
| TSQESEDTYL [TBC1D10A, Q9BXI6] | below the threshold |

Target: NHERF4_1, Q86UT5-2
Experiment: holdup assay
Parameters: key: below the threshold = too weak to quantify, mostly under pKd 3.1 to 4
Conditions: plain residues with an end cap or a label only (N-terminal biotin on a linker: ado-ado)

Chain of NHERF4_1, Q86UT5-2 (Q86UT5 other isoform, or with tags, fused parts or gaps): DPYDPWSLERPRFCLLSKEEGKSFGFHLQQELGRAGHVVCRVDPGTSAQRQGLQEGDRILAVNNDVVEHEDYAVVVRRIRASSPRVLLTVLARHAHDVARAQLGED

| Binder | pKd |
| --- | --- |
| AKPSRISTVV [IQSEC2, Q5JU85] | 3.48 |
| TSQESEDTYL [TBC1D10A, Q9BXI6] | 3.97 |

Target: IL16_4, Q14005
Experiment: holdup assay
Parameters: key: below the threshold = too weak to quantify, mostly under pKd 3.1 to 4
Conditions: plain residues with an end cap or a label only (N-terminal biotin on a linker: ado-ado)

Chain of IL16_4, Q14005 (Q14005 1229-1329): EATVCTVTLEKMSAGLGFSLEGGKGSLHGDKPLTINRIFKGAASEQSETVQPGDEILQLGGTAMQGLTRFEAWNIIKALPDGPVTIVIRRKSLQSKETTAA

| Binder | pKd |
| --- | --- |
| AKPSRISTVV [IQSEC2, Q5JU85] | 3.51 |
| TSQESEDTYL [TBC1D10A, Q9BXI6] | below the threshold |

Target: Inadl_3, Q8NI35
Experiment: holdup assay
Parameters: key: below the threshold = too weak to quantify, mostly under pKd 3.1 to 4
Conditions: plain residues with an end cap or a label only (N-terminal biotin on a linker: ado-ado)

Chain of Inadl_3, Q8NI35 (Q8NI35 359-469): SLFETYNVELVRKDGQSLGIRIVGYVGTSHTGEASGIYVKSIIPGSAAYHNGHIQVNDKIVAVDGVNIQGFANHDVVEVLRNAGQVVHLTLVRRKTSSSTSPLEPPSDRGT

| Binder | pKd |
| --- | --- |
| AKPSRISTVV [IQSEC2, Q5JU85] | 3.73 |
| TSQESEDTYL [TBC1D10A, Q9BXI6] | below the threshold |

Target: NHERF4_4, Q86UT5
Experiment: holdup assay
Parameters: key: below the threshold = too weak to quantify, mostly under pKd 3.1 to 4
Conditions: plain residues with an end cap or a label only (N-terminal biotin on a linker: ado-ado)

Chain of NHERF4_4, Q86UT5 (Q86UT5 464-550): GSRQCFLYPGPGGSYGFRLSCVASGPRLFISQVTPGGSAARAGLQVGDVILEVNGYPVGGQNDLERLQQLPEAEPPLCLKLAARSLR

| Binder | pKd |
| --- | --- |
| AKPSRISTVV [IQSEC2, Q5JU85] | below the threshold |
| TSQESEDTYL [TBC1D10A, Q9BXI6] | below the threshold |

Target: GRID2IP_1, A4D2P6
Experiment: holdup assay
Parameters: key: below the threshold = too weak to quantify, mostly under pKd 3.1 to 4
Conditions: plain residues with an end cap or a label only (N-terminal biotin on a linker: ado-ado)

Chain of GRID2IP_1, A4D2P6 (A4D2P6 1-87): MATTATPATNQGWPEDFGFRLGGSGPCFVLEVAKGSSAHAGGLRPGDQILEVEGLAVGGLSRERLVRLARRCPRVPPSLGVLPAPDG

| Binder | pKd |
| --- | --- |
| AKPSRISTVV [IQSEC2, Q5JU85] | below the threshold |
| TSQESEDTYL [TBC1D10A, Q9BXI6] | below the threshold |

Target: T11, GRIP1_4, Q9Y3R0
Experiment: holdup assay
Parameters: key: below the threshold = too weak to quantify, mostly under pKd 3.1 to 4
Conditions: plain residues with an end cap or a label only (N-terminal biotin on a linker: ado-ado)

| Binder | pKd |
| --- | --- |
| AKPSRISTVV [IQSEC2, Q5JU85] | below the threshold |
| TSQESEDTYL [TBC1D10A, Q9BXI6] | below the threshold |

Target: MAST2, Q6P0Q8
Experiment: holdup assay
Parameters: key: below the threshold = too weak to quantify, mostly under pKd 3.1 to 4
Conditions: plain residues with an end cap or a label only (N-terminal biotin on a linker: ado-ado)

Chain of MAST2, Q6P0Q8 (Q6P0Q8 1099-1202): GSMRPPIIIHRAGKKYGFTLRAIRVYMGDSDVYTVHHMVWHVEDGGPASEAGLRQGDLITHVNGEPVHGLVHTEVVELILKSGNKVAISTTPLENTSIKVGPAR

| Binder | pKd |
| --- | --- |
| AKPSRISTVV [IQSEC2, Q5JU85] | 5.11 |
| TSQESEDTYL [TBC1D10A, Q9BXI6] | 5.41 |

Target: Inadl_6, Q8NI35
Experiment: holdup assay
Parameters: key: below the threshold = too weak to quantify, mostly under pKd 3.1 to 4
Conditions: plain residues with an end cap or a label only (N-terminal biotin on a linker: ado-ado)

Chain of Inadl_6, Q8NI35 (Q8NI35 1058-1167): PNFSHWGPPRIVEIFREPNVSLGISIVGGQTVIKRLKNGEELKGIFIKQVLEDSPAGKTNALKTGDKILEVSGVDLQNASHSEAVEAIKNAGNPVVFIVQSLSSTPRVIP

| Binder | pKd |
| --- | --- |
| AKPSRISTVV [IQSEC2, Q5JU85] | below the threshold |
| TSQESEDTYL [TBC1D10A, Q9BXI6] | 3.78 |

Target: MAGI2_5, Q86UL8
Experiment: holdup assay
Parameters: key: below the threshold = too weak to quantify, mostly under pKd 3.1 to 4
Conditions: plain residues with an end cap or a label only (N-terminal biotin on a linker: ado-ado)

Chain of MAGI2_5, Q86UL8 (Q86UL8 915-1017): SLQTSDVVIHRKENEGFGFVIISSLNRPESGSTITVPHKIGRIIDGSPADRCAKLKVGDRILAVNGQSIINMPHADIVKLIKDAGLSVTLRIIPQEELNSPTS

| Binder | pKd |
| --- | --- |
| AKPSRISTVV [IQSEC2, Q5JU85] | 4.44 |
| TSQESEDTYL [TBC1D10A, Q9BXI6] | below the threshold |

Target: FRMPD2_1, Q68DX3
Experiment: holdup assay
Parameters: key: below the threshold = too weak to quantify, mostly under pKd 3.1 to 4
Conditions: plain residues with an end cap or a label only (N-terminal biotin on a linker: ado-ado)

Chain of FRMPD2_1, Q68DX3 (Q68DX3 770-861): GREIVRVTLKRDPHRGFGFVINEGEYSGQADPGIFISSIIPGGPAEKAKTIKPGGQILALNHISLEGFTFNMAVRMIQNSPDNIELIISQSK

| Binder | pKd |
| --- | --- |
| AKPSRISTVV [IQSEC2, Q5JU85] | 3.53 |
| TSQESEDTYL [TBC1D10A, Q9BXI6] | below the threshold |
